Values of other authors, collected in publication PMC12188480.
pKd: −log10 of the molar value.

Target: c-MET (Homo sapiens) (UniProt P08581)
Sequence (P08581 25-932): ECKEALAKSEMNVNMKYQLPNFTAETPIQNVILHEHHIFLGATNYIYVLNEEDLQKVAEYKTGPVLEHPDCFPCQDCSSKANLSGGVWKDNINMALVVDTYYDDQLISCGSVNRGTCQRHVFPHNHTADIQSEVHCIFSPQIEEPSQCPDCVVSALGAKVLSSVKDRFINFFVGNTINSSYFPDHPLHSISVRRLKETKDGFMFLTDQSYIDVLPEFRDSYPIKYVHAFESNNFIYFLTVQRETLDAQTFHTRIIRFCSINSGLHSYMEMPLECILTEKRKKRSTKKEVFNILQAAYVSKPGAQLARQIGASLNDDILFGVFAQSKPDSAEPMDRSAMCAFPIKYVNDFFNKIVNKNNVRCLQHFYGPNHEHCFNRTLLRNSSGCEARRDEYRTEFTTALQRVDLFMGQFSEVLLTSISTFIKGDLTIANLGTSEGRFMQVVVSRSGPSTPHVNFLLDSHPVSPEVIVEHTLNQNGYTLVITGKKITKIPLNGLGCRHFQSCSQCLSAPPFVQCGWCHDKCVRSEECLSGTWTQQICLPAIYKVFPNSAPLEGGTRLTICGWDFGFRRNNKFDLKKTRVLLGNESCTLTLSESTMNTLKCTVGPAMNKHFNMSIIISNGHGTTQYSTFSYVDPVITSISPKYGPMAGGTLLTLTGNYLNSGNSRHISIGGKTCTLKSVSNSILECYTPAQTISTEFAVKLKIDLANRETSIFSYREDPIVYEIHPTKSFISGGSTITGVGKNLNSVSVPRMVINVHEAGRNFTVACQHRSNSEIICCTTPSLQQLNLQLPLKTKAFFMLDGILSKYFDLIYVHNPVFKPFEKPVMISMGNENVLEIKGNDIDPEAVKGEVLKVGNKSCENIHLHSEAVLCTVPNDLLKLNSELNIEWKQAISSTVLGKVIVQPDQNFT

onartuzumab
pKd: 8.92
